Reference: paper PMC5098251 (Scientific Reports, 2016)

Columns and labels:
recombinant human FasR [1] = biological target: T1, recombinant human FasR (Homo sapiens, UniProt P25445); assay: BLI; Octet Red384; recombinant human FasR; 1:1 Langmuir model; at least in duplicate; who was immobilised is not told (Supplementary Protocols 8-10)
T1 construct: Fas receptor (FasR, CD95), human, recombinant; The FasR of the BLI and SPR experiments; Details are in Supplementary Protocols 8-10; also called recombinant FasR
T1 sequence (P25445 26-335): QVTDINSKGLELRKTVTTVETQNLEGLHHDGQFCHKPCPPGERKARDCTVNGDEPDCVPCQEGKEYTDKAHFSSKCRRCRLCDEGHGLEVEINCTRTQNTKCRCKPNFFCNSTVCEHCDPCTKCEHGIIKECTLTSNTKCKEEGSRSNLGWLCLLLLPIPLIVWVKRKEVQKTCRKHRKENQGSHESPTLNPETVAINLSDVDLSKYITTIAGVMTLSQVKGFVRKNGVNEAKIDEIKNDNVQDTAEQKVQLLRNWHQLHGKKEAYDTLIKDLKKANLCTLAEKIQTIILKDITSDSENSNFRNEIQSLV

[2] = biological target: T2, FasR-Fc (Fc-fused Fas receptor) (Homo sapiens, UniProt P25445); assay: on-bead equilibrium titration read by flow cytometry (Bead Surface Display); apparent; Fas-Fc titrated against beads displaying SNAP-scFv-HA; normalised median fluorescence fitted to a saturation binding curve; conditions: one partner purified
T2 construct: Fas receptor (FasR, CD95), human; also called Fas-Fc; CD95; source: bought: R&D Systems
T2 sequence (P25445 26-173): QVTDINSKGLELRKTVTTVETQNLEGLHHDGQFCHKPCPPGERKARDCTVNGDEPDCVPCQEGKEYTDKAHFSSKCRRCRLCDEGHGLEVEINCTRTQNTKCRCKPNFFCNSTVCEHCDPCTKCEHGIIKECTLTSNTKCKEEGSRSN

[3] = biological target: T2, FasR-Fc (Fc-fused Fas receptor); assay: on-bead binding assay read by flow cytometry (Bead Surface Display); SNAP-scFv-HA made by in vitro transcription/translation and held on streptavidin beads through BG-DNA anchors; beads incubated 1 h at room temperature with FasR-Fc (1 nM unless stated; 1, 10 and 30 nM in Fig. 2B), then with DyLight488-labelled goat anti-Fc; 1.5% marvel in PBS, washes with PBS and 0.05% Tween 20; conditions: one partner purified
recombinant human FasR [4] = biological target: T1, recombinant human FasR; assay: BLI; Octet Red384; recombinant human FasR; 1:1 Langmuir model; at least in duplicate; who was immobilised is not told (Supplementary Protocols 8-10); conditions: both partners purified

B1: A07a scFv (scFv, V domains shown)
VH: QLQLQESGPGLVKPSETLSLTCTVPGASISANSYYGVWVRQSPGKGLEWVGSIAYRGNSNSGSTYYNPSLKGRATVSVDTSKNQVSLRLTSVTAADTALYYCARRQLLDDGTGYQWAAFDNWDQGTMVTVSS
VL: QSVLTQPPSVSEAPRQTVTISCSGNSFNIGRYPVNWYQQLPGKAPKLLIYSNNLRFSGVSDRFSGSKSGTSASLAIRDLLSEDEADYYCSTWDDTLKGWVFGGGTKVTVL
Kd (recombinant human FasR [1]): 400 pM
koff (recombinant human FasR [1]): 5.6e-05 s⁻¹
kon (recombinant human FasR [1]): 162000 M⁻¹ s⁻¹

B2: R4aS scFv (scFv, V domains shown)
VH: QLQLQESGPGLVKPSETLSLTCTVPGASISANSYYGVWVRQSPGKGLEWVGSIAYRGNSNSGSTYYNPSLKSRATVSVDTSKNQVSLRLTSVTAADTALYYCARRQLLDDGTGYQWAAFDNWDQGTMVTVSS
VL: QSVLTQPPSVSEAPRQTVTISCSGNSFNTGRYPVNWYQQLPGKAPKLLIYSNNLRLSGVSDRFSGSKSGTSASLAIRDLLSEDEADYYCSTWDDTLEGWVFGGGTKVTVL
Kd (recombinant human FasR [1]): 380 pM
koff (recombinant human FasR [1]): 4.5e-05 s⁻¹
kon (recombinant human FasR [1]): 117000 M⁻¹ s⁻¹

B3: SNAP-E09 scFv-HA (scFv, V domains shown)
VH: QLQLQESGPGLVKPSETLSLTCTVSGASISANSYYGVWVRQSPGKGLEWVGSIAYRGNSNSGSTYYNPSLKSRATVSVDTSKNQVSLRLTSVTAADTALYYCARRQLLDDGTGYQWAAFDVWGQGTMVTVSS
VL: QSVLTQPPSVSEAPRQTVTISCSGNSFNIGRYPVNWYQQLPGKAPKLLIYYNNLRFSGVSDRFSGSKSGTSASLAIRDLLSEDEADYYCSTWDDTLKGWVFGGGTKVTVL
notes: VH: as the VH of m6 (E09); scFv linker, as in m6; VL: as the VL of m6 (E09); 47 kDa fusion; The parent vector pIVEX-SNAP-GFP holds the R30I mutant of the SNAP-tag; also called SNAP-scFv-HA; parent; source: in vitro translated (PURExpress), captured on BG-DNA-coated streptavidin beads; not shown: SNAP-tag, N-terminal, kept; HA, C-terminal, kept
Kd [2]: 4300 ± 300 pM
fold signal increase over the background (FasR at 1 nM) [3]: > 1250 fold

B4: E09 scFv with the single mutation VH S25P (scFv, V domains shown)
VH: QLQLQESGPGLVKPSETLSLTCTVPGASISANSYYGVWVRQSPGKGLEWVGSIAYRGNSNSGSTYYNPSLKSRATVSVDTSKNQVSLRLTSVTAADTALYYCARRQLLDDGTGYQWAAFDVWGQGTMVTVSS
VL: QSVLTQPPSVSEAPRQTVTISCSGNSFNIGRYPVNWYQQLPGKAPKLLIYYNNLRFSGVSDRFSGSKSGTSASLAIRDLLSEDEADYYCSTWDDTLKGWVFGGGTKVTVL
notes: numbers count on: Kabat numbering; scFv linker, as in m6; VL: as the VL of m6 (E09); Made by site-directed mutagenesis of E09 in pCantab6
fold increase in affinity over the parent scFv E09 (Kd) (recombinant human FasR [4]): 4 fold

B5: E09 scFv with the single mutation VL Y50S (scFv, V domains shown)
VH: QLQLQESGPGLVKPSETLSLTCTVSGASISANSYYGVWVRQSPGKGLEWVGSIAYRGNSNSGSTYYNPSLKSRATVSVDTSKNQVSLRLTSVTAADTALYYCARRQLLDDGTGYQWAAFDVWGQGTMVTVSS
VL: QSVLTQPPSVSEAPRQTVTISCSGNSFNIGRYPVNWYQQLPGKAPKLLIYSNNLRFSGVSDRFSGSKSGTSASLAIRDLLSEDEADYYCSTWDDTLKGWVFGGGTKVTVL
notes: VH: as the VH of m6 (E09); scFv linker, as in m6; numbers count on: Kabat numbering; Made by site-directed mutagenesis of E09 in pCantab6
fold increase in affinity over the parent scFv E09 (Kd) (recombinant human FasR [4]): 4 fold

B6: SNAP-A09a scFv-HA (scFv, V domains shown)
VH: QLQLQEPGPGLTKPSETLSLTCTVPGASISADSYYGVWVRQSPGKGLEWVGSIAYRGNSNSGSTYYNPSLKSRATVSVDTSKNQVSLRLTSVTAADTALYYCARRQLLDDGTGYQWAAFDVWGQGTMVTVSS
VL: QSVLTQPPSVSEAPRQTVTISCSGNSFNIGRYPVNWYQQLPGKAPKLLIYHNNLRFSGVSDRFSGSKSGTSASLAIRDLLSEDEADYYCSTWDDTLKGWVFGGGTKVTVL
notes: numbers count on: Kabat numbering; scFv linker, as in m6; On-bead form of m13; not shown: SNAP-tag, N-terminal, kept; HA, C-terminal, kept
fold increase of MFS over E09 [3]: > 2 fold
